Laboratory results reported in article PMC6624210 (Nature Communications, 2019).

B1: mouse monoclonal antibody 7D10 (antibody, V domains shown)
VH: EVQLVESGAEVVKPGASVKMSCKASGYPFTSYNIHWIKQTPGQGLEWIGAIYPGNGDTSYTQKFKVKATLTSDKSSSTAYMQLSSLTSEDSAVYFCARYGNYPSYAMDYWGQGTSVTVSS
VL: DIVMTQSPASLTVSLGQRATISCRASKSVSASGYNYLHWYQQRPGQPPKLLIYLAFNLESGVPARFNGSGSGTDFTLNIHPVEEEDAATYYCQHSRDLPFTFGSGTKLEIK
B2: 7D10 scFv (VL, triple GGGS linker, VH) (scFv, V domains shown)
VH: EVQLVESGAEVVKPGASVKMSCKASGYPFTSYNIHWIKQTPGQGLEWIGAIYPGNGDTSYTQKFKVKATLTSDKSSSTAYMQLSSLTSEDSAVYFCARYGNYPSYAMDYWGQGTSVTVSS
VL: DIVMTQSPASLTVSLGQRATISCRASKSVSASGYNYLHWYQQRPGQPPKLLIYLAFNLESGVPARFNGSGSGTDFTLNIHPVEEEDAATYYCQHSRDLPFTFGSGTKLEIK

What was measured:
[1] = molecular target: recombinant receptor-binding domain of MERS-CoV S glycoprotein (residues 367-606) (MERS-CoV, EMC/2012 (strain used …, UniProt K0BRG7)); assay: ELISA; settings: both partners purified
[2] = molecular target: MERS-CoV spike glycoprotein S1 N-terminal domain (residues 18-353), wild type (MERS-CoV, EMC strain (NTD sequence …, UniProt K9N5Q8)); assay: cell-based or functional assay
MERS-CoV spike glycoprotein S1 N-terminal domain (residues 18-353), wild type (MERS-CoV, EMC strain, sequence (K9N5Q8 18-353): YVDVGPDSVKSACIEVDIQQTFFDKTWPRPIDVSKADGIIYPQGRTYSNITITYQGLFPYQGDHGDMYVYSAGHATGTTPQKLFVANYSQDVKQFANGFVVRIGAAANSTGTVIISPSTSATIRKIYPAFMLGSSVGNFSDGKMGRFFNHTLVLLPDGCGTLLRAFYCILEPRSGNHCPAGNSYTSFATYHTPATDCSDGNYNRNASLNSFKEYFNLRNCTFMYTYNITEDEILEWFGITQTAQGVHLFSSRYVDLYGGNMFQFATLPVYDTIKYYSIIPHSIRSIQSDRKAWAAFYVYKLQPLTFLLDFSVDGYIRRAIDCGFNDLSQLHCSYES

| Binder | binding result [1] | IC50 of neutralisation of pseudotyped MERS-CoV on Huh7 cells (luciferase) [2] [mg/L] | IC50 of inhibition of cell entry of pseudotyped MERS-CoV (Huh7 cells) [2] [mg/L] |
| --- | --- | --- | --- |
| B1 | no binding (tested: 4 μg mL^−1) | ~0.18 | – |
| B2 | – | – | 0.28 |
